Data set [1] deals with T1, RAD54 1-142 (NTD) (human, UniProt Q92698 1-142).
T1 sequence: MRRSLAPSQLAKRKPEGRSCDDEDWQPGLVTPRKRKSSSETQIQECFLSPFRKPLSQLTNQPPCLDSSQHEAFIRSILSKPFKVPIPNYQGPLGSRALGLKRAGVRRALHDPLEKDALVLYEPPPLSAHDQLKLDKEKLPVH
Kind of data set: competition EMSA. To be noted: vs 30 nM 32P-PX junction, 300 nM protein, 5 mM Mg2+, 2 mM ATP, 25 mM Tris-acetate pH 7.5, 5 mM Mg acetate, 100 ug/ml BSA, 2 mM DTT, 10% glycerol, 4 C, 45 min, 30 nM PX junction, 6% native PAGE in 0.25x TBE, scale: fold excess, PX complexes stable at 150-200-fold excess of ss- or dsDNA.

Data set [2] deals with T2, RAD54 156-747 (human, UniProt Q92698 156-747).
T2 sequence: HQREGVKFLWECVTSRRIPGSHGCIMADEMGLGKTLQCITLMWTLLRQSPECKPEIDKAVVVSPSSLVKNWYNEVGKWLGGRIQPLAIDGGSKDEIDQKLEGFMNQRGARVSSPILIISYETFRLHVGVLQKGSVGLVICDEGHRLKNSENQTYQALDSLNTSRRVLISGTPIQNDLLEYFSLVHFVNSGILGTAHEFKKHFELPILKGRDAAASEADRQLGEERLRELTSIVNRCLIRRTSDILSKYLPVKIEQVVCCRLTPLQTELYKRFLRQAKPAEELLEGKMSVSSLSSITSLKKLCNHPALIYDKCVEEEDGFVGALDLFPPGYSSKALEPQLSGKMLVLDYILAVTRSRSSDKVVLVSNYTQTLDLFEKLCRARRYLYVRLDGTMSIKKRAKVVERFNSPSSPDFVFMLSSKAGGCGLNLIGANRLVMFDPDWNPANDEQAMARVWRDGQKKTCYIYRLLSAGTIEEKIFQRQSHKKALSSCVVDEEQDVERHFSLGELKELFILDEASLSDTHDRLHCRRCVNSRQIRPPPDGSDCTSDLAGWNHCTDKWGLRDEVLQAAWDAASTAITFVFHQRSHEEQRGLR
Kind of data set: competition EMSA. Conditions: vs 30 nM 32P-PX junction, 100 nM protein, 5 mM Mg2+, 2 mM ATP, 25 mM Tris-acetate pH 7.5, 5 mM Mg acetate, 100 ug/ml BSA, 2 mM DTT, 10% glycerol, 4 C, 45 min, 30 nM PX junction, 6% native PAGE in 0.25x TBE, scale: fold excess of competitor giving 50% dissociation of PX complexes.

In data set [3] the target is T1, RAD54 1-142 (NTD). Kind of data set: competition EMSA; vs 30 nM 32P-PX junction; 300 nM protein; 5 mM Mg2+, 2 mM ATP; 25 mM Tris-acetate pH 7.5, 5 mM Mg acetate, 100 ug/ml BSA, 2 mM DTT, 2 mM ATP, 10% glycerol, 4 C, 45 min; 30 nM PX junction; 6% native PAGE in 0.25x TBE. Conditions: protein: recombinant; tags: Sumo-His, cleaved; four-way junction, 4 strands.
For data set [4], the target named is T2, RAD54 156-747. Kind of data set: EMSA; 100 nM protein; 5 mM Mg2+, 2 mM ATP; 25 mM Tris-acetate pH 7.5, 5 mM Mg acetate, 100 ug/ml BSA, 2 mM DTT, 2 mM ATP, 10% glycerol, 4 C, 45 min; 30 nM PX junction; 6% native PAGE in 0.25x TBE. Conditions: protein: recombinant; tags: Sumo-His, cleaved; partial X junction with one ssDNA arm, 4 strands.
Data set [5] deals with T1, RAD54 1-142 (NTD). Nature of the data set: EMSA; distinct complexes from 0.1 uM protein; 5 mM Mg2+, 2 mM ATP; 25 mM Tris-acetate pH 7.5, 5 mM Mg acetate, 100 ug/ml BSA, 2 mM DTT, 2 mM ATP, 10% glycerol, 4 C, 45 min; 30 nM PX junction; 6% native PAGE in 0.25x TBE. Conditions: protein: recombinant; tags: Sumo-His, cleaved; partial X junction with one ssDNA arm, 4 strands.
Data set [6] deals with the molecule itself. Kind of data set: cross-linking; BMH (25 µM) cross-linking of the protein (1.2 µM) without DNA; 20 mM HEPES-KOH pH 7.5, 5 mM MgCl2, 5 mM EDTA, 40 mM KCl, 25 °C; 15% SDS-PAGE, silver staining.

Changes are numbered by the printed parent chain.

In turn, dsDNA (oligos 1/2) came in with a binding signal with RAD54 1-142 (NTD) [1] greater than 150.

For the molecule ssDNA (oligo 2), the results for the binding signal with RAD54 156-747 [2] and with RAD54 1-142 (NTD) [1] were 4 and greater than 150, respectively.

B1: X-junction (174/175/176/177) (structured_DNA)
DNA 1: GACGCTGCCGAATTCTACCAGTGCCTTGCTAGGACATCTTTGCCCACCTGCAGGTTCACCC
DNA 2: TGGGTGAACCTGCAGGTGGGCAAAGATGTCCTAGCAATGTAATCGTCAAGCTTTATGCCGTT
DNA 3: CAACGGCATAAAGCTTGACGATTACATTGCTAGGACATGCTGTCTAGAGGATCCGACTATCGA
DNA 4: ATCGATAGTCGGATCCTCTAGACAGCATGTCCTAGCAAGGCACTGGTAGAATTCGGCAGCGT
As to B1, the binding signal with RAD54 1-142 (NTD) [3] is ~6 fold preference for PX junction over HJ (X-junction).

B2: non-mobile PX junction (174/175/176/181) (structured_DNA)
DNA 1: B1 DNA 1
DNA 2: B1 DNA 2
DNA 3: B1 DNA 3
DNA 4: TCGATAGTCGGATCCTCTAGACAGC
Consider B2, for which the binding result in the data set with RAD54 156-747 [4] and in the data set with RAD54 1-142 (NTD) [5] was “binds” each time.

B3: RAD54_(1–142) NTD (domain or fragment, human, UniProt Q92698 1-142, looked up)
chain: T1 sequence
notes: cloned in pETHSUL; Sumo-His tag cleaved off by Sumo hydrolase; also called RAD54 NTD; source: E. coli Rosetta 2 (DE3), purified (HiTrap Ni2+, Sephacryl S-200 HR, Resource S)
Consider B3, for which the “stoichiometry N” value in data set [6] came out at 2.

B4: RAD54_(1–142) ^S49E (domain or fragment, human, UniProt Q92698 1-142, looked up)
chain: T1 sequence with S49E
notes: source: E. coli Rosetta 2 (DE3), purified (HiTrap Ni2+, Sephacryl S-200 HR, Resource S)
Consider B4, for which the “stoichiometry N” value in data set [6] amounted to 2.

B5: RAD54_(1–142) ^33AAAA36 (domain or fragment, human, UniProt Q92698 1-142, looked up)
chain: T1 sequence with R33A, K34A, R35A, K36A
notes: as for B4
Regarding B5, the “stoichiometry N” value in data set [6] was 2.

These data come from publication PMC5750232, “RAD54 N-terminal domain is a DNA sensor that couples ATP hydrolysis with branch migration of Holliday junctions” (Nature Communications, 2018).
